Data: paper PMC5050560

Molecular target: cdPadR1 (Clostridium difficile R20291, UniProt A0A9R0CDW8 1-109)
Experiment: EMSA; 20 mM Tris pH 8.0, 120 mM KCl, 10 mM MgCl2, 5 mM DTT, 12.5% glycerol, 125 ug/mL heparin, room temperature
Conditions: protein: recombinant; tags: N-terminal Strep II; chain copies: 2

Row | Binder | binding result
1 | Pr121 (dsDNA) DNA 1: AAGCTACCTTGCATAAATATCTTGGATAGTATATTGATTATATAATCAGTAAATGTTATACTTTTCATGACGATAAAAACATTTTAGTCATAAGGGGGTT DNA 2: AACCCCCTTATGACTAAAATGTTTTTATCGTCATGAAAAGTATAACATTTACTGATTATATAATCAATATACTATCCAAGATATTTATGCAAGGTAGCTT | binds
2 | Pr122 (dsDNA) DNA 1: TAGAGTACTATGTATTATTATAGTAAATAT DNA 2: ATATTTACTATAATAATACATAGTACTCTA | binds
3 | Pr35 (dsDNA) DNA 1: CATTTAAAGAATGGGATATTATGTAATTGTAGATTATGTAGGTTTAAATTATTTATTTTTGTTTTAGCAAATTCTATGAATAGAAGGGGTTTGATTATGG DNA 2: CCATAATCAAACCCCTTCTATTCATAGAATTTGCTAAAACAAAAATAAATAATTTAAACCTACATAATCTACAATTACATAATATCCCATTCTTTAAATG | binds
4 | Pr68 (dsDNA) DNA 1: GTACTATACATTATAGAGTAG DNA 2: CTACTCTATAATGTATAGTAC | binds
5 | Pr41 (dsDNA) DNA 1: TACTATACATTATAGAGTAGTA DNA 2: TACTACTCTATAATGTATAGTA | binds
6 | Pr34 (dsDNA) DNA 1: TTTGATGAAAAAAATGTTACAATATTTAATATTGAAAATGGCGATGTTATTAGCATAGAGAATGGAGGAAATTAAATGAAACAAGAATACGGTGCAAGTC DNA 2: GACTTGCACCGTATTCTTGTTTCATTTAATTTCCTCCATTCTCTATGCTAATAACATCGCCATTTTCAATATTAAATATTGTAACATTTTTTTCATCAAA | binds
7 | Pr53 (dsDNA) DNA 1: AATATAAGTACTATACATTATAGAG DNA 2: CTCTATAATGTATAGTACTTATATT | no binding
8 | Pr70 (dsDNA) DNA 1: TTATTTACCCCCTATTGTTTTATTAGGCTAAGTTGATGATTTATTTAACCTATGCTATAATTTTATCACTATGGTACTATATTACAATAATGCACTTTTT DNA 2: AAAAAGTGCATTATTGTAATATAGTACCATAGTGATAAAATTATAGCATAGGTTAAATAAATCATCAACTTAGCCTAATAAAACAATAGGGGGTAAATAA | binds
9 | Pr32 (dsDNA) DNA 1: TGTATTATAGAGTACTATGTATTATTATAGTAAATATAAGTACTATACATTATAGAGTAGTAGG DNA 2: CCTACTACTCTATAATGTATAGTACTTATATTTACTATAATAATACATAGTACTCTATAATACA | binds
10 | Pr95 (dsDNA) DNA 1: TAAAATTTATCATTATATAAGTAA DNA 2: TTACTTATATAATGATAAATTTTA | no binding
11 | Pr104 (dsDNA) DNA 1: AGGTGAATGAAACAAAAGATGTCATGATAAGTCATGTAAAACAATAGTTT DNA 2: AAACTATTGTTTTACATGACTTATCATGACATCTTTTGTTTCATTCACCT | binds
12 | Pr103 (dsDNA) DNA 1: TATATAAGTAACATACCCAATTTTGAGGTGAATGAAACAAAAGATGTCAT DNA 2: ATGACATCTTTTGTTTCATTCACCTCAAAATTGGGTATGTTACTTATATA | no binding
13 | Pr33 (dsDNA) DNA 1: GAGTACTATGTATTATTATAGTAAATATAAGTACTATACATTATAGAGTAGTAG DNA 2: CTACTACTCTATAATGTATAGTACTTATATTTACTATAATAATACATAGTACTC | binds
14 | Pr112 (dsDNA) DNA 1: ATATTTTAGTTATATTTTTGATAGAAAATATTTTATCGTGTATAATACTACTTATAAATAAGAATAAAAATAAAGAGCTTGTTTGGAGGAATTTTAATAA DNA 2: TTATTAAAATTCCTCCAAACAAGCTCTTTATTTTTATTCTTATTTATAAGTAGTATTATACACGATAAAATATTTTCTATCAAAAATATAACTAAAATAT | binds
15 | Pr88 (dsDNA) DNA 1: GTACTATGTATTATTATAGTAA DNA 2: TTACTATAATAATACATAGTAC | no binding
16 | Pr43 (dsDNA) DNA 1: CTATGTATTATTATAGTAAATATAAGTACTATACATTA DNA 2: TAATGTATAGTACTTATATTTACTATAATAATACATAG | no binding
17 | Pr30 (dsDNA) DNA 1: TATAGTAAATATAAGTACTATACATTATAGAGTAGTAGGTGAAAAGGCGGTGGTACATAATGCAGTTA DNA 2: TAACTGCATTATGTACCACCGCCTTTTCACCTACTACTCTATAATGTATAGTACTTATATTTACTATA | binds

Row | Binder | binding result
18 | Pr114 (dsDNA) DNA 1: ATATTTTATAATTAATAATTGTAATGCCGCACAGTAAAGGTTTAAATCTTCAAATGAAGTACCTTGTACTGGCGAGTTTGAGGCCGAGGAGGTGTATTTA DNA 2: TAAATACACCTCCTCGGCCTCAAACTCGCCAGTACAAGGTACTTCATTTGAAGATTTAAACCTTTACTGTGCGGCATTACAATTATTAATTATAAAATAT | no binding
19 | Pr48 (PnorV) (dsDNA) DNA 1: TTTTAACCCTCCTAAAATTTATCATTATATAAGTAACATACCCAATTTTGAGGTGAATGAAACAAAAGATGTCATGATAAGTCATGTAAAACAATAGTTT DNA 2: AAACTATTGTTTTACATGACTTATCATGACATCTTTTGTTTCATTCACCTCAAAATTGGGTATGTTACTTATATAATGATAAATTTTAGGAGGGTTAAAA | binds
20 | Pr69 (dsDNA) DNA 1: ATGCTATAATTTTATCACTATGGTACTATATTACAATAATGCACTTTTTTGTAATATAGTATCTAAAAAGATACTTTAAAATAAATAAAGGAGCTCAAAA DNA 2: TTTTGAGCTCCTTTATTTATTTTAAAGTATCTTTTTAGATACTATATTACAAAAAAGTGCATTATTGTAATATAGTACCATAGTGATAAAATTATAGCAT | binds
21 | Pr54 (dsDNA) DNA 1: GTAAATATAAGTACTATACATTATAGAGTAG DNA 2: CTACTCTATAATGTATAGTACTTATATTTAC | binds
22 | Pr42 (dsDNA) DNA 1: CTATACATTATAG DNA 2: CTATAATGTATAG | no binding
23 | Pr31 (dsDNA) DNA 1: AATATAAGTACTATACATTATAGAGTAGTAGGTGAAAAGGCGGTGGTACATAATGCAGTTA DNA 2: TAACTGCATTATGTACCACCGCCTTTTCACCTACTACTCTATAATGTATAGTACTTATATT | binds
24 | Pr29 (dsDNA) DNA 1: TAAACCTTGTATTATAGAGTACTATGTATTATTATAGTAAATATAAGTACTATACATTATAGAG DNA 2: CTCTATAATGTATAGTACTTATATTTACTATAATAATACATAGTACTCTATAATACAAGGTTTA | binds
25 | Pr67 (dsDNA) DNA 1: AGTACTATACATTATAGAGTAGT DNA 2: ACTACTCTATAATGTATAGTACT | binds
26 | Pr27 (PcdpadR1) (dsDNA) DNA 1: TAAACCTTGTATTATAGAGTACTATGTATTATTATAGTAAATATAAGTACTATACATTATAGAGTAGTAGGTGAAAAGGCGGTGGTACATAATGCAGTTA DNA 2: TAACTGCATTATGTACCACCGCCTTTTCACCTACTACTCTATAATGTATAGTACTTATATTTACTATAATAATACATAGTACTCTATAATACAAGGTTTA | binds
27 | Pr105 (dsDNA) DNA 1: AAAAGATGTCATGATAAGTCATGTAA DNA 2: TTACATGACTTATCATGACATCTTTT | no binding
28 | Pr120 (dsDNA) DNA 1: TTTTTATTCCTCCCTTTTTATTTATTAAAATTTATTATATTTTTCTATGATTCACTTAATTAAATTTCTCCATCTACAATTTTTCCATCTACAGATATAG DNA 2: CTATATCTGTAGATGGAAAAATTGTAGATGGAGAAATTTAATTAAGTGAATCATAGAAAAATATAATAAATTTTAATAAATAAAAAGGGAGGAATAAAAA | binds
29 | Pr102 (dsDNA) DNA 1: TTTTAACCCTCCTAAAATTTATCATTATATAAGTAACATACCCAATTTTG DNA 2: CAAAATTGGGTATGTTACTTATATAATGATAAATTTTAGGAGGGTTAAAA | binds
30 | Pr97 (dsDNA) DNA 1: TTACTTATATAATGATAAATTTTAGGAG DNA 2: CTCCTAAAATTTATCATTATATAAGTAA | no binding
31 | Pr94 (dsDNA) DNA 1: AATGAAACAAAAGATGTCATG DNA 2: CATGACATCTTTTGTTTCATT | no binding
32 | Pr96 (dsDNA) DNA 1: AAGTAACATACCCAATTTTGAGGT DNA 2: ACCTCAAAATTGGGTATGTTACTT | no binding
33 | Pr111 (dsDNA) DNA 1: ATATAGGAAATATAGAACAGATTTTCCAAGAAATCTAAATATTCTATGACCACGTGAATTGCTATGCACACATGTTGATAATCCATATTTTAAATCTAAA DNA 2: TTTAGATTTAAAATATGGATTATCAACATGTGTGCATAGCAATTCACGTGGTCATAGAATATTTAGATTTCTTGGAAAATCTGTTCTATATTTCCTATAT | binds
34 | Pr106 (dsDNA) DNA 1: AAAATTTATCATTATATAAGTAACATAC DNA 2: GTATGTTACTTATATAATGATAAATTTT | no binding
